# Data: paper PMC11089037, “Structural basis of negative regulation of CRISPR-Cas7-11 by TPR-CHAT”
# B1: single spacer pre-crRNA (ssRNA)
# RNA: GGUUGGAAAGCCGGUUUUCUUUGAUGUCACGGAACCUUUGUUGUCUUCGACAUGGGUAAUCCUCAU
# Tests used:
# DiCas7-11 = DiCas7-11 (Desulfonema ishimotonii, UniProt A0A401FT36 1-1601); assay: cryo-EM; EMSA: 40 mM Tris-HCl pH 7.5, 60 mM NaCl, 6 mM MgCl2, 30 min at 4 C; 15% native PAGE; cryo-EM samples: 20 mM HEPES-NaOH pH 8.0, 300 mM NaCl, 0.5 mM DTT; settings: protein: recombinant; tags: N-terminal 8xHis-SUMO-TEV; single strand, V-shaped 5' repeat
# DiCas7-11, sequence (A0A401FT36 entry or part of it): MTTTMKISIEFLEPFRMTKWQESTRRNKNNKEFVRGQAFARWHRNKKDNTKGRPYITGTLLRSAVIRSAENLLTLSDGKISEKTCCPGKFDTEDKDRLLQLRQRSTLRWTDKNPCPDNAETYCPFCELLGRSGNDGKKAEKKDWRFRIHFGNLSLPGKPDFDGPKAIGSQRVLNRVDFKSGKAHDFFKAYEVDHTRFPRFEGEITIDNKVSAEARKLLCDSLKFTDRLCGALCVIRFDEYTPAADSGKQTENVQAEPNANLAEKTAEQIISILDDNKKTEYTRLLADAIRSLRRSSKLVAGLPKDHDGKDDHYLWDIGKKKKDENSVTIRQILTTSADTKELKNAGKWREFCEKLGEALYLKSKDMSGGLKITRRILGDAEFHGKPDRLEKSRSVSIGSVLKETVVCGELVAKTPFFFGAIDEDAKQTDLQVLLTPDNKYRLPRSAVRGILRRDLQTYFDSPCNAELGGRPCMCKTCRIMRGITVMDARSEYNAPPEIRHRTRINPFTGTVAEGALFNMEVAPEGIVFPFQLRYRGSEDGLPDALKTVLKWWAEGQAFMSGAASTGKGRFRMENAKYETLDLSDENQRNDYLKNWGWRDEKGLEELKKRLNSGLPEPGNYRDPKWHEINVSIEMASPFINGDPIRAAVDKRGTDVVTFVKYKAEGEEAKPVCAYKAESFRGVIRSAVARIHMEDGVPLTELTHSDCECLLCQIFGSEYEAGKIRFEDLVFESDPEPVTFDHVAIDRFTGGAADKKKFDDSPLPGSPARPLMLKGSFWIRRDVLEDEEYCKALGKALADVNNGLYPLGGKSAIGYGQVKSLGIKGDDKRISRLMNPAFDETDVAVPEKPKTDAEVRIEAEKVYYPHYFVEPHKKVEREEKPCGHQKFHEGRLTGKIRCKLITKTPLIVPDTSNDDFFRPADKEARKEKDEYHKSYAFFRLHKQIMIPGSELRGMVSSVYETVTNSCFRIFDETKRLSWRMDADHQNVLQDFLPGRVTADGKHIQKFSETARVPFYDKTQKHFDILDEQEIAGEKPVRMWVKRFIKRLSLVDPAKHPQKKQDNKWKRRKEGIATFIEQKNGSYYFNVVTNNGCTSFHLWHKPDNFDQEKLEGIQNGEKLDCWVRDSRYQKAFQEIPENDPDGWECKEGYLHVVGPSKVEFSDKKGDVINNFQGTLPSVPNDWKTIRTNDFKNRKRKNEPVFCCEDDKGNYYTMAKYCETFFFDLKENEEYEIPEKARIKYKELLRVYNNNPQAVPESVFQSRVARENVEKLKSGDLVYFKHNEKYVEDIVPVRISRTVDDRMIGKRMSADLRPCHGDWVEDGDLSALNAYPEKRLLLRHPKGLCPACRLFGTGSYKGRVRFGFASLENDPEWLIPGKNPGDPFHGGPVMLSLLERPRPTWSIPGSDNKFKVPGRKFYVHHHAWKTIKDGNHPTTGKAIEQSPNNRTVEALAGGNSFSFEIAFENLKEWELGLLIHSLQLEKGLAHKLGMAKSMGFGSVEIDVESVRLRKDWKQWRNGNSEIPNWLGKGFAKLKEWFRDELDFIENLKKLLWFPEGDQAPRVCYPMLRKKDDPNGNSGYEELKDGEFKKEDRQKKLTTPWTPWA
# DiCas7-11;DiTPR-CHAT NTD = DiCas7-11;DiTPR-CHAT NTD (Desulfonema ishimotonii;Desulfonema …, UniProt A0A401FT36;A0A401FT52 1-1601;1-65, |); assay: cryo-EM; with TPR-CHAT NTD; EMSA: 40 mM Tris-HCl pH 7.5, 60 mM NaCl, 6 mM MgCl2, 30 min at 4 C; 15% native PAGE; cryo-EM samples: 20 mM HEPES-NaOH pH 8.0, 300 mM NaCl, 0.5 mM DTT; settings: protein: recombinant;recombinant; tags: N-terminal 8xHis-SUMO-TEV;C-terminal 2xStrep; copies: 1;1; single strand, V-shaped 5' repeat
# DiCas7-11;DiTPR-CHAT NTD, sequence (chain, as listed by the source |, chain 1 of 2): as the sequence (A0A401FT36 entry or part of it) above
# DiCas7-11;DiTPR-CHAT NTD, sequence (chain, as listed by the source |, chain 2 of 2): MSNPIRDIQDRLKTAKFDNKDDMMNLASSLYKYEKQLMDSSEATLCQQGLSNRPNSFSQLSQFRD
# DiCas7-11;DiTPR-CHAT = DiCas7-11;DiTPR-CHAT (Desulfonema ishimotonii;Desulfonema …, UniProt A0A401FT36;A0A401FT52 1-1601;1-751, |); assay: cryo-EM; with full-length TPR-CHAT; EMSA: 40 mM Tris-HCl pH 7.5, 60 mM NaCl, 6 mM MgCl2, 30 min at 4 C; 15% native PAGE; cryo-EM samples: 20 mM HEPES-NaOH pH 8.0, 300 mM NaCl, 0.5 mM DTT; settings: protein: recombinant;recombinant; tags: N-terminal 8xHis-SUMO-TEV;C-terminal 2xStrep; copies: 1;1; single strand, V-shaped 5' repeat
# DiCas7-11;DiTPR-CHAT, sequence (chain, as listed by the source |, chain 1 of 2): as the sequence (A0A401FT36 entry or part of it) above
# DiCas7-11;DiTPR-CHAT, sequence (chain, as listed by the source |, chain 2 of 2): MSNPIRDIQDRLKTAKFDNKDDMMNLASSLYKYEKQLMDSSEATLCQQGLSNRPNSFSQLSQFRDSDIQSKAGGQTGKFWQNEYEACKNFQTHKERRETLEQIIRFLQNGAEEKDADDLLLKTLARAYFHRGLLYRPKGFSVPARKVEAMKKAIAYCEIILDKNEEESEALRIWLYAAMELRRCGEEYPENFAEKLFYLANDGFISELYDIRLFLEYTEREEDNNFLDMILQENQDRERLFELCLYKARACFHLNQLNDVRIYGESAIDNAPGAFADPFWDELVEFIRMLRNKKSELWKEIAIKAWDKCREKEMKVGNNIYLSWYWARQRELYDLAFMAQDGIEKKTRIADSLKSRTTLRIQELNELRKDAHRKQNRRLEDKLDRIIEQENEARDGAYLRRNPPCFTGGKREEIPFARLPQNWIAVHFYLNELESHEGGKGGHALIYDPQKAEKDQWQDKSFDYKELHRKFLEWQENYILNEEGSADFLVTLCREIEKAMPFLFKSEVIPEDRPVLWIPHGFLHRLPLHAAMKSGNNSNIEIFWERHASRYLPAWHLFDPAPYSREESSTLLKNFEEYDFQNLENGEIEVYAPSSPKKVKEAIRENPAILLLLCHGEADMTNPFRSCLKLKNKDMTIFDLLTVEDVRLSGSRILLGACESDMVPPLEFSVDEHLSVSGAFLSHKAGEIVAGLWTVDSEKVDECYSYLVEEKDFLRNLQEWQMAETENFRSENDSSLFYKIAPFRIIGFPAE
# DiCas7-11Inactive = DiCas7-11Inactive (Desulfonema ishimotonii, UniProt A0A401FT36 1-1601, D429A;D654A); assay: cryo-EM; pre-crRNA at 1:2 molar ratio; target RNA not seen in the map; EMSA: 40 mM Tris-HCl pH 7.5, 60 mM NaCl, 6 mM MgCl2, 30 min at 4 C; 15% native PAGE; cryo-EM samples: 20 mM HEPES-NaOH pH 8.0, 300 mM NaCl, 0.5 mM DTT; settings: protein: recombinant; tags: N-terminal 8xHis-SUMO-TEV
# DiCas7-11Inactive, sequence (A0A401FT36 entry or part of it D429A;D654A): as the sequence (A0A401FT36 entry or part of it) above, with D429A, D654A counted along it
Binder,binding result (DiCas7-11),binding result (DiCas7-11;DiTPR-CHAT NTD),binding result (DiCas7-11;DiTPR-CHAT),binding result (DiCas7-11Inactive)
"UUGAUGUCACGGAACCUUUGUUGUCUUCGACAUGGGUA (structured_RNA) [mature crRNA in cryo-EM structures, U(-15)-A(23)]",binds,binds,binds,–
B1,–,–,–,binds
